Patent US20250009876A1 (H LUNDBECK A S, published 2025)

T1: VIP (Vasoactive Intestinal Peptide) (human)
T1 construct: also called human VIP
T1 peptide: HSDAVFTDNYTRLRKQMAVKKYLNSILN

T2: PACAP27 (Pituitary Adenylate Cyclase-Activating Polypeptide, 27 amino acids) (human, the C-terminal leucine is amidated)
T2 construct: also called human PACAP27
T2 peptide: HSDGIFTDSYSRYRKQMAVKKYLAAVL

T3: PACAP38 (Pituitary Adenylate Cyclase-Activating Polypeptide, 38 amino acids) (human, not fully specified; the C-terminal lysine is amidated)
T3 construct: In the HTRF and PC-12 cell assays the peptide was N-terminally or C-terminally biotinylated; unlabelled in SPR; also called human PACAP38; huPACAP (1-38)
T3 peptide: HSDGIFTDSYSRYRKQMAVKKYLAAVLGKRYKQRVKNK


Legend:
[1] = target: T1, VIP (Vasoactive Intestinal Peptide); assay: SPR (ProteOn XPR36), antibody amine-coupled, peptide analyte, 1:1 Langmuir fit
[2] = target: T2, PACAP27 (Pituitary Adenylate …); assay: inhibition of 0.1 nM 125I-PACAP27 binding to membranes with human PAC1-R long isoform, filter binding
Experimental: To identify antibodies that block PACAP27 binding to PAC1-R, antibodies at an initial concentration of 30 nM were diluted in incubation buffer (50 mM Hepes pH 7.4, 1 mM CaCl₂, 5 mM MgCl₂, 0.2% BSA) and serial 1:3 dilutions were performed. Antibody dilutions (30 nM, 10 nM, 3 nM, 1 nM, 0.3 nM, 0.1 nM, 0.03 nM, 0.01 nM, 0.003 nM and 0.001 nM) were then mixed and pre-incubated at 25° C. for 30 minutes with 0.1 nM of ¹²⁵I-labelled PACAP27 in incubation buffer. The antibody: ¹²⁵I-labelled PACAP27 mixture was then added to 0.5 μg aliquots of cell membranes derived from Chem-1 cells expressing human recombinant PAC1-R long isoform in incubation buffer. The mixture was then incubated for 1 hour at 25° C. Following incubation, the samples were filtered and washed. Afterward, the filters were counted to quantitate ¹²⁵I-labelled PACAP27. As an experimental control, non-specific binding to the cell membranes was estimated using 0.1 μM of […] PACAP27.

[3] = target: T3, PACAP38 (Pituitary Adenylate …); assay: inhibition of 30 nM biotinylated PACAP38 binding to PAC1-R-expressing PC-12 cells, Eu-streptavidin TRF
Experimental: (§1) To identify antibodies that block PACAP38 binding to PAC1-R-expressing cells, adherent PC-12 cells (ATCC, Manassas, VA) expressing PAC1-R were used in a Europium-based PAC1-R-expressing cells binding assay. Antibody solutions were incubated with N-terminal biotinylated PACAP38 at 10× the final concentration (100 nM or 30 nM) for 1 hr, then added to PC-12 cells that were plated 24 hrs prior in black clear bottom 96 well plates (COSTAR™, Corning Incorporated, Corning, NY) and further incubated for 1 hr at room temperature. After three washes, the cells were incubated with 20 μl Europium-labeled streptavidin (PerkinElmer, Waltham, MA) for 1 hr at room temperature. Cells were washed three times, then 20 μl DELFIA® Enhancement solution (PerkinElmer, Waltham, MA) was added to each well and incubated for 15 minutes with gentle shaking. Plates were read (Time Resolved Fluorescence (“TRF”)) on SPECTRAMAX® (Molecular Devices, Sunnyvale, CA) plate reader.
(§2) FIGS. 14A-14H are representative of the inhibition curves obtained by this method (results are shown for Ab10, Ab20, Ab21, Ab1.H, Ab10.H, Ab21.H, Ab22, and Ab23, respectively) wherein the PAC1-R expressing cells were PC-12 cells.

[4] = target: T3, PACAP38 (Pituitary Adenylate …); assay: HTRF binding assay, antibody dilution series on 35 nM biotinylated PACAP38
Experimental: In parallel, 10 μl of an antibody dilution series (highest final concentration of 100 nM) were incubated with 10 μl of N-terminal or C-terminal biotinylated PACAP38 (35 nM final) alone, or in combination with either PACAP27 (350 nM final) or VIP (350 nM final), i.e., 10× PACAP27 or 10× VIP, respectively, in a HTRF plate. 20 μl of Eu³⁺ cryptate labeled anti-hu Fc donor and 20 μl of d2-labeled streptavidin acceptor were added to each well and incubated for 1 hour at room temperature. Fluorescence was measured at 620 and 665 nm with a delay of 300 usec.
EC₅₀ values, i.e. the concentration of an antibody that yields a response halfway between the baseline and the maximum value within a specified time period, were computed for each antibody based upon their binding curves and are shown in Table 1 below. […] A humanized form of antibody Ab1 identified by an appended “.H”, i.e., Ab1.H also bound PACAP38 with high affinity.

[5] = target: T3, PACAP38 (Pituitary Adenylate …); assay: inhibition of 100 nM biotinylated PACAP38 binding to PAC1-R-expressing PC-12 cells, Eu-streptavidin TRF
Experimental: as §1, §2

[6] = target: T1, VIP (Vasoactive Intestinal Peptide); assay: SPR (ProteOn XPR36), antibody amine-coupled, peptide analyte, 1:1 Langmuir fit; SPR, direct binding of VIP to the antibody; weak, KD 2.8E-07 M
[7] = target: T1, VIP (Vasoactive Intestinal Peptide); assay: SPR (ProteOn XPR36), antibody amine-coupled, peptide analyte, 1:1 Langmuir fit; SPR, direct binding of VIP to the antibody; weak, KD 1.1E-06 M

Kd [1]	koff [1]	kon [1]	IC50 [2]	IC50 [3]	EC50 [4]	IC50 [5]	Kd [6]	koff [6]	kon [6]	Kd [7]	koff [7]	kon [7]	Binder
100 nM	0.039 s⁻¹	380000 M⁻¹ s⁻¹	0.22 nM	14.5 nM									Ab10.H (antibody, human IgG1, kappa, N297A, Full-length humanized variant of Ab10) heavy: not shown light: DAQLTQSPSTLSASVGDRVTITCQSSESVYGNYLAWFQQKPGKAPKFLIYEASKLESGVPSRFSGSGSGTEFTLTISSLQPDDFATYYCAGGDISEGVAFGGGTKVEIKRTVAAPSVFIFPPSDEQLKSGTASVVCLLNNFYPREAKVQWKVDNALQSGNSQESVTEQDSKDSTYSLSSTLTLSKADYEKHKVYACEVTHQGLSSPVTKSFNRGEC
					0.36 nM	17.8 nM	280 nM	0.01 s⁻¹	37000 M⁻¹ s⁻¹				Ab10 (antibody, human IgG1, kappa, N297A, V domains shown, Full-length anti-PACAP antibody; rabbit variable regions cloned onto human constant regions (rabbit/human chimeric), expressed in HEK-293) VH: QSVEESGGRLVTPGTPLTLTCTVSGIDLNSYYMTWVRQAPGKGLEWIGFIDAGGDAYYASWAKGRFTISKTSTTVDLKITSPTTEDTATYFCARDLDLWGQGTLVTVSS VL: AAVLTQTPSPVSAAVGGTVTINCQSSESVYGNYLAWFQQKPGQPPKLLIYEASKLESGVPSRFSGSGSGTQFTLTISDLQCDDAATYYCAGGDISEGVAFGGGTEVVVKR
					0.38 nM	32.7 nM				1100 nM	0.48 s⁻¹	450000 M⁻¹ s⁻¹	Ab20 (antibody, human IgG1, kappa, N297A, V domains shown, Full-length anti-PACAP antibody; rabbit/human chimeric) VH: QSVEESGGRLVTPGTPLTLTCTVSGIDLSSYYMSWVRQAPGKGLEWIGFIDTDGSAYYATWAKGRFTISKTSTTVDLKITSPTTEDTATYFCARDLDLWGPGTLVTVSS VL: AAVLTQTPSPVSAAVGGTVSISCQSSESVYSNYLAWFQQKPGQPPKFLIYEASKLASGVPSRFKGSGSGTQFTLTISDVQCDDAGTYYCAGGYSSEGVAFGGGTEVVVKR
